In the supplement of paper PMC7877785:
± gives the uncertainty stated by the source.

Test: self-splicing fitness, log relative to wild type (ln ratio); higher = more splicing; Tetrahymena group I intron in knt gene, E. coli kanamycin selection, DiMSum; sequences stand for … in CUCUCU…GGAGGGAAAAGUUAUCAGGCAUGCACCUGGUAGCUAGUCUUUAAACCAAUAGAUUGCAUCGGUUUAAAAGGCAAGACCGUCAAAUUGCGGGAAAGGGGUCAACAGCCGUUCAGUACCAAGUCUCAGGGGAAACUUUGAGAUGGCCUUGCAAAGGGUAUGGUAAUAAGCUGACGGACAUGGUCCUAACCACGCAGCCAAGUCCUAAGUCAACAGAUCUUCUGUUGAUAUGGAUGCAGUUCACAGACUAAAUGUCGGUCGGGGAAGAUGUAUUCUUCUCAUAAGAUAUAGUCGGACCUCUCCUUAAUGGGAGCUAGCGGAUGAAGUGAUGCAACACUGGAGCCGCUGGGAACUAAUUUGUAUGCGAAAGUAUAUUGAUUAGUUUUGGAGUACUCGUGGUCG
Method in brief: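 DiMSum derived fitness as the error-weighted combination of fold changes across replicates, kanamycin versus no kanamycin, normalised to wild type. E. coli BL21(DE3) held the library, which randomised all eight P1ex-region intron nucleotides within the knt kanamycin-resistance gene on pET-22b(+). Six replicate transformations grew overnight at 37°C or 30°C on LB agar with or without 25 μg/mL kanamycin, also containing 100 μg/mL carbenicillin, 50 μM IPTG and 0.2% rhamnose, and pooled colonies were amplicon-sequenced on an Illumina HiSeq 2500.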

Sequence | self-splicing fitness (ln) (30 °C) | self-splicing fitness (ln) (37 °C)
GAUUAGCAAUAUUACGAUUU | -0.392 ± 0.12 | 0.757 ± 0.13
GAUUAGCAAUAUUACGCACC | -1.5 ± 0.081 | -0.681 ± 0.084
GAUUAGCAAUAUUACGCGGC | -3.08 ± 0.38 | -2 ± 0.35
GAUUAGCAAUAUUACGGAAG | -2.01 ± 0.24 | -2.18 ± 0.28
GAUUAGCAAUAUUACGGAUA | -1.36 ± 0.17 | 0.0656 ± 0.2
GAUUAGCAAUAUUACGGCAG | -2.78 ± 0.31 | -1.84 ± 0.23
GAUUAGCAAUAUUACGGCCC | -0.175 ± 0.083 | -0.352 ± 0.12
GAUUAGCAAUAUUACGGCCU | -1.39 ± 0.12 | -0.323 ± 0.098
GAUUAGCAAUAUUACGGUCG | -1.28 ± 0.11 | -0.366 ± 0.13
GAUUAGCAAUAUUACGGUGG | -2.89 ± 0.2 | -2.88 ± 0.2
GAUUAGCAAUAUUACGUAGU | -3.06 ± 0.15 | -1.34 ± 0.12
GAUUAGCAAUAUUACGUGAG | -1.33 ± 0.073 | 0.0593 ± 0.096
GAUUAGCAAUAUUACGUGAU | -3.04 ± 0.11 | -1.07 ± 0.091
GAUUAGCAAUAUUACGUGCC | 0.747 ± 0.28 | -0.667 ± 0.46
GCAAAGCAAUAUUACGAAAC | -1.75 ± 0.092 | -0.783 ± 0.11
GCAAAGCAAUAUUACGAAUU | -2.67 ± 0.15 | -0.942 ± 0.11
GCAAAGCAAUAUUACGACCU | -1.17 ± 0.13 | 0.204 ± 0.16
GCAAAGCAAUAUUACGAGCC | -2.28 ± 0.28 | 
GCAAAGCAAUAUUACGAGCG | -1.06 ± 0.077 | -0.631 ± 0.093
GCAAAGCAAUAUUACGAUGA | -0.578 ± 0.076 | 0.353 ± 0.096
GCAAAGCAAUAUUACGCGCG | -1.55 ± 0.12 | -0.161 ± 0.15
GCAAAGCAAUAUUACGCGUG | -3.41 ± 0.1 | -1.27 ± 0.078
GCAAAGCAAUAUUACGCGUU | -1.96 ± 0.13 | -2.03 ± 0.2
GCAAAGCAAUAUUACGCUUG | -3.98 ± 0.18 | -2.64 ± 0.18

Sequence | self-splicing fitness (ln) (30 °C) | self-splicing fitness (ln) (37 °C)
GCAAAGCAAUAUUACGCUUU | -3.49 ± 0.15 | -3.27 ± 0.22
GCAAAGCAAUAUUACGGAUC | -1.26 ± 0.073 | -0.379 ± 0.085
GCAAAGCAAUAUUACGGCCC | -0.121 ± 0.18 | -0.618 ± 0.27
GCAAAGCAAUAUUACGGCUG | -2.43 ± 0.14 | -1.24 ± 0.17
GCAAAGCAAUAUUACGGGUC | -2.55 ± 0.14 | -1.05 ± 0.12
GCAAAGCAAUAUUACGGUUC | -2.17 ± 0.089 | -0.948 ± 0.11
GCAAAGCAAUAUUACGUACG | -1.13 ± 0.083 | -1.84 ± 0.13
GCAAAGCAAUAUUACGUAUC | -2.35 ± 0.082 | -1.74 ± 0.076
GCAAAGCAAUAUUACGUGAA | -0.989 ± 0.099 | -0.0746 ± 0.12
GCAAAGCAAUAUUACGUUAA | -1.83 ± 0.14 | -1.45 ± 0.14
GCAAAGCAAUAUUACGUUAC | -2.75 ± 0.19 | -1.3 ± 0.15
GCACAGCAAUAUUACGAACG | -1.53 ± 0.1 | -0.558 ± 0.13
GCACAGCAAUAUUACGAAUC | -1.15 ± 0.076 | -0.69 ± 0.079
GCACAGCAAUAUUACGACCA | -0.551 ± 0.11 | -0.554 ± 0.14
GCACAGCAAUAUUACGACUC | -0.289 ± 0.067 | 0.76 ± 0.083
GCACAGCAAUAUUACGAUCU | -0.54 ± 0.064 | 0.0668 ± 0.085
GCACAGCAAUAUUACGCAGC |  | -1.85 ± 0.21
GCACAGCAAUAUUACGCAUC | -1.07 ± 0.083 | -0.51 ± 0.096
GCACAGCAAUAUUACGCCCG | -1.84 ± 0.17 | -0.0618 ± 0.19
GCACAGCAAUAUUACGCGCA | -0.993 ± 0.099 | -0.327 ± 0.093
GCACAGCAAUAUUACGCUGC | -4.12 ± 0.37 | -2.1 ± 0.3
GCACAGCAAUAUUACGCUGU | -3.33 ± 0.14 | -2.23 ± 0.17
GCACAGCAAUAUUACGGACU | -0.665 ± 0.082 | -0.54 ± 0.086
GCACAGCAAUAUUACGGCUA | -0.204 ± 0.081 | -0.393 ± 0.085
